Results from article doi:10.1101/2024.04.18.590116 (bioRxiv, 2024).

Target: T1, 6xHis-MPK3 (rice, UniProt Q10N20 1-369)
T1 sequence (looked up): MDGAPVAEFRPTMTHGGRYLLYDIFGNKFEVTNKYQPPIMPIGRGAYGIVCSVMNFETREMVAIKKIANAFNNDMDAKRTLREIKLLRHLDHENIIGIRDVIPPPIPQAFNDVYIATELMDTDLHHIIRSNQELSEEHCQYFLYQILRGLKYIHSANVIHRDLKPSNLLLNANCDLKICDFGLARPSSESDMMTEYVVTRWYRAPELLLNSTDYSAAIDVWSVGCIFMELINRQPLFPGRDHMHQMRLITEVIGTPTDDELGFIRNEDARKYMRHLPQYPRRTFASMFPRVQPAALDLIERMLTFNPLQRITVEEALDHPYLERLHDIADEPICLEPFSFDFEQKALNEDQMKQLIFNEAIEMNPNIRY
Test: pull-down

B1: GST-KRP3 (natural protein, rice (Oryza sativa), UniProt Q2R185 1-225, looked up)
chain: MGKYLRSSCKQQQQPSSPAAVASVAAAAVSSYSYLTLRSGRRVPAAAAAAGGSACRRRHRRGGRRGCAKNGAGSARACGARSPTSSASSGQRRRCEAVECSHGGGRAELSRSPPLGNSVVVVSGDVVSGERKSLKPNSCSREVAAEHAGEHKHNPAAAAAAGRRPPLSPPEAEIEAFFAAAELAERRRFAEKYNYDIALDRPLQGRYEWEPTVPNFDVAKDVTDM
B1: binds.
